In patent US20210333284A1, “METHODS AND MATERIALS FOR LARGE-SCALE ASSESSMENT OF LIGAND BINDING SELECTIVITY OF G-QUADRUPLEX RECOGNITION USING CUSTOM G4 MICROARRAYS” (Purdue Research Foundation, priority 2020, published 2021):

How the values were obtained:
[1] = system: MYC Pu22 G4 variants; assay: G4 microarray direct binding to loop length, loop sequence and tail variants; parameters: species or system human
From the text: Three Agilent DNA microarrays (TABLE 1) were designed, each with four identical sectors that contain ca.177,440 ssDNA 60-mers to examine G4-binding specificity. Arrays were designed with 9-73 replicates of each unique sequence to ensure statistical significance (TABLE 1). Each microarray contains different sets of G4 variants designed to examine several sequence parameters that affect G4 formation and binding specificity such as loop length (Design 1), loop sequence (Design 2), tail sequence (Design 2), and single nucleotide variants of six known G4s (Design 3). […]
The effect of specific sequence parameters on molecule binding was examined. […] Distinct patterns within the best-bound sequences were identified, including flexibility for the nucleotides in the central loop of the G4 and an overall preference for thymines in loops (FIG. 3F), consistent with previous findings that T nucleotides in loops have a greater propensity for folding into G4s than other nucleotides.^39 Different tail sequence ([…] (SEQ ID NO: 3)) preferences were found for all measured molecules (FIG. 3G), further underscoring the utility of the platform in identifying sequence features important for G4 binding and highlighting tail sequences in determining binding specificity. […]

[2] = system: G4 sequences and non-G4 ssDNA controls on Design 3 microarray; assay: Custom G4 DNA microarray, direct binding by fluorescence intensity; parameters: species or system human
From the text: Three Agilent DNA microarrays (TABLE 1) were designed, each with four identical sectors that contain ca.177,440 ssDNA 60-mers to examine G4-binding specificity. Arrays were designed with 9-73 replicates of each unique sequence to ensure statistical significance (TABLE 1). Each microarray contains different sets of G4 variants designed to examine several sequence parameters that affect G4 formation and binding specificity such as loop length (Design 1), loop sequence (Design 2), tail sequence (Design 2), and single nucleotide variants of six known G4s (Design 3). All microarrays include a set of 19 sequences from human telomeres and oncogene promoters known to form G4s with various topologies as positive controls (TABLE 2). Designs 2 and 3 have a set of 295 additional G4-forming sequences from the literature.^30 For the loop length variants, the length of the tails and loops of four different MYC G4 sequences (MYC Pu27, MYC Pu18ntd, MYC Pu22, and MYC Pu22 NMR mutant) was increased up to five times their length. Loop and tail sequences were varied using A, T, G, and C polynucleotide stretches and a subset of combinations. For the loop sequence variants, 4,096 sequences of the form NGGGNGGGNNGGGNGGGN (SEQ ID NO: 2) and 64 variants of the form GGGNGGGNGGGNGGG (SEQ ID NO: 1) were generated. For the tail variants, 256 versions of the major MYC G4 with all possible dinucleotide tails ([…] (SEQ ID NO: 3)) were generated. […]
The binding specificities of several molecules were evaluated. […] Binding of each molecule is measured by detection of fluorescence intensity at each of the microarray features. […] Cellular proteins were expressed as chimeric proteins containing GST, and binding for these proteins was detected using an anti-GST antibody conjugated with Cy5 (Materials and Methods). […] For Cy5-PDS, robust binding is observed at 1 μM, with fluorescence intensities ranging over 100-fold between strongest and weakest bound DNA features. The fluorescence-binding intensities of Cy5-PDS are proportional to the concentration of pyridostatin used). […]

correlation (R) of loop length of the MYC Pu22 G4 vs binding intensity ([1]; loop length variants)	Molecule	tail (flanking) sequence preference in direct binding ([1]; NNGGGTGGGGAGGGTGGGNN variants, no competitor)	binding specificity, G4 vs non-G4 ssDNA sequences [2]
	DHX36: GST-tagged human DHX36/G4R1/MLEL1 helicase (protein, listed as Homo sapiens, GST tag, GST-tagged human DHX36/G4R1/MLEL1 helicase) MSYDYHQNWGRDGGPRSSGGGYGGGPAGGHGGNRGSGGGGGGGGGGRGGRGRHPGHLKGREIGMWYAKKQGQKNKEAERQERAVVHMDERREEQIVQLLNSVQAKNDKESEAQISWFAPEDHGYGTEVSTKNTPCSENKLDIQEKKLINQEKKMFRIRNRSYIDRDSEYLLQENEPDGTLDQKLLEDLQKKKNDLRYIEMQHFREKLPSYGMQKELVNLIDNHQVTVISGETGCGKTTQVTQFILDNYIERGKGSACRIVCTQPRRISAISVAERVAAERAESCGSGNSTGYQIRLQSRLPRKQGSILYCTTGIILQWLQSDPYLSSVSHIVLDEIHERNLQSDVLMTVVKDLLNFRSDLKVILMSATLNAEKFSEYFGNCPMIHIPGFTFPVVEYLLEDVIEKIRYVPEQKEHRSQFKRGFMQGHVNRQEKEEKEAIYKERWPDYVRELRRRYSASTVDVIEMMEDDKVDLNLIVALIRYIVLEEEDGAILVFLPGWDNISTLHDLLMSQVMFKSDKFLIIPLHSLMPTVNQTQVFKRTPPGVRKIVIATNIAETSITIDDVVYVIDGGKIKETHFDTQNNISTMSAEWVSKANAKQRKGRAGRVQPGHCYHLYNGLRASLLDDYQLPEILRTPLEELCLQIKILRLGGIAYFLSRLMDPPSNEAVLLSIRHLMELNALDKQEELTPLGVHLARLPVEPHIGKMILFGALFCCLDPVLTIAASLSFKDPFVIPLGKEKIADARRKELAKDTRSDHLTVVNAFEGWEEARRRGFRYEKDYCWEYFLSSNTLQMLHNMKGQFAEHLLGAGFVSSRNPKDPESNINSDNEKIIKAVICAGLYPKVAKIRLNLGKKRKMVKVYTKTDGLVAVHPKSVNVEQTDFHYNWLIYHLKMRTSSIYLYDCTEVSPYCLLFFGGDISIQKDNDQETIAVDEWIVFQSPARIAHLVKELRKELDILLQEKIESPHPVDWNDTKSRDCAVLSAIIDLIKTQEKATPRNFPPRFQDGYYS	preferentially binds MYC22 G4 variants containing pyrimidines (C/T) at the 5′ end of the G4	bind only G4 sequences
strongest effect	FANCJ: GST-tagged human BRCA1-binding helicase-like protein / Fanconi anemia group J protein (protein, listed as Homo sapiens, GST tag) MSSMWSEYTIGGVKIYFPYKAYPSQLAMMNSILRGLNSKQHCLLESPTGSGKSLALLCSALAWQQSLSGKPADEGVSEKAEVQLSCCCACHSKDFTNNDMNQGTSRHFNYPSTPPSERNGTSSTCQDSPEKTTLAAKLSAKKQASIYRDENDDFQVEKKRIRPLETTQQIRKRHCFGTEVHNLDAKVDSGKTVKLNSPLEKINSFSPQKPPGHCSRCCCSTKQGNSQESSNTIKKDHTGKSKIPKIYFGTRTHKQIAQITRELRRTAYSGVPMTILSSRDHTCVHPEVVGNFNRNEKCMELLDGKNGKSCYFYHGVHKISDQHTLQTFQGMCKAWDIEELVSLGKKLKACPYYTARELIQDADIIFCPYNYLLDAQIRESMDLNLKEQVVILDEAHNIEDCARESASYSVTEVQLRFARDELDSMVNNNIRKKDHEPLRAVCCSLINWLEANAEYLVERDYESACKIWSGNEMLLTLHKMGITTATFPILQGHFSAVLQKEEKISPIYGKEEAREVPVISASTQIMLKGLFMVLDYLFRQNSRFADDYKIAIQQTYSWTNQIDISDKNGLLVLPKNKKRSRQKTAVHVLNFWCLNPAVAFSDINGKVQTIVLTSGTLSPMKSFSSELGVTFTIQLEANHIIKNSQVWVGTIGSGPKGRNLCATFQNTETFEFQDEVGALLLSVCQTVSQGILCFLPSYKLLEKLKERWLSTGLWHNLELVKTVIVEPQGGEKTNFDELLQVYYDAIKYKGEKDGALLVAVCRGKVSEGLDFSDDNARAVITIGIPFPNVKDLQVELKRQYNDHHSKLRGLLPGRQWYEIQAYRALNQALGRCIRHRNDWGALILVDDRFRNNPSRYISGLSKWVRQQIQHHSTFESALESLAEFSKKHQKVLNVSIKDRTNIQDNESTLEVTSLKYSTPPYLLEAASHLSPENFVEDEAKICVQELQCPKIITKNSPLPSSIISRKEKNDPVFLEEAGKAEKIVISRSTSPTFNKQTKRVSWSSFNSLGQYFTGKIPKATPELGSSENSASSPPRFKTEKMESKTVLPFTDKCESSNLTVNTSFGSCPQSETIISSLKIDATLTRKNHSEHPLCSEEALDPDIELSLVSEEDKQSTSNRDFETEAEDESIYFTPELYDPEDTDEEKNDLAETDRGNRLANNSDCILAKDLFEIRTIKEVDSAREVKAEDCIDTKLNGILHIEESKIDDIDGNVKTTWINELELGKTHEIEIKNFKPSPSKNKGMFPGFK		also bind other ssDNAs in addition to folded G4s
